{"source": "the DeepSol protein solubility set", "data": [{"assay": "soluble on expression in E. coli; label from the status in PepcDB or PDB records", "values": [{"sequence": "MNYTETVAYIHSFPRLAKTGDHRRILTLLHALGNPQQQGRYIHVTGTNGKSTAANAIAHVLEASGLTVGLYTSPFIMRFNERIMIDHEPIPDAALVNAVAFVRAALERLQQQQADFNVTEFEFITALGYWYFRQRQVDVAVIEVGIGGDTDSTNVITPVVSVLTSVALDHQKLLGHTITAIAKHKAGIIKRGIPVVTGNLVPDAAAVVAAKVATTGSQWLRFDRDFSVPKAKLHGWGQRFTYEDQDGRISDLEVPLVGDYQQRNMAIAIQTAKVYAKQTEWPLTPQNIRQGLAASHWPARLEKISDTPLIVIDGAHNPDGINGLITALKQLFSQPITVIAGILADKDYAAMADRLTAAFSTVYLVPVPGTPRALPEAGYEALHEGRLKDSWQEALAASLNDVPDQPIVITGSLYLASAVRQTLLGGKS", "soluble on expression in E. coli": "soluble"}, {"sequence": "MPAFDKPKVELHVHLDGSIKPETILYYGRRRGIALPANTAEGLLNVIGMDKPLTLPDFLAKFDYYMPAIAGCREAIKRIAYEFVEMKAKEGVVYVEVRYSPHLLANSKVEPIPWNQAEGDLTPDEVVALVGQGLQEGERDFGVKARSILCCMRHQPNWSPKVVELCKKYQQQTVVAIDLAGDETIPGSSLLPGHVQAYQEAVKSGIHRTVHAGEVGSAEVVKEAVDILKTERLGHGYHTLEDQALYNRLRQENMHFEICPWSSYLTGAWKPDTEHAVIRLKNDQANYSLNTDDPLIFKSTLDTDYQMTKRDMGFTEEEFKRLNINAAKSSFLPEDEKRELLDLLYKAYGMPPSASAGQNLAENLYFQ", "soluble on expression in E. coli": "soluble"}, {"sequence": "MPAHSLFSLSVSAALLLSAVPLPAQSAGWKPAEQIKTYAISGNTGGGLYQSIGERGPTAGVQAIAHTTFKLTWRRDYRPQPDGACVLVTARPNLTIIYTWPKAPSNLPPAVAASWKTFISGVETHERVHGEHILDMVKKIEAFSTGLRAENDPKCQKVRVVLQQRLGELSNEQRQRGRDFDRDELSPGGRVHQLILTLANGP", "soluble on expression in E. coli": "soluble"}, {"sequence": "MPAINAKRVYRIMRQNALLLERKPAVPPSKRAHTGRVAVKESNQRWCSDGFEFCCDNGERLRVTFALDCCDREALHWAVTTGGFNSETVQDVMLGAVERRFGNDLPSSPVEWLTDNGSCYRANETRQFARMLGLEPKNTAVRSPESNGIAESFVKTIKRDYISIMPKPDGLTAAKNLAEAFEHYNEWHPHSALGYRSPREYLRQRACNGLSDNRCLEILEHHHHHH", "soluble on expression in E. coli": "soluble"}, {"sequence": "MPAKIPITDNHMHIDPRARGLEAVKEFKNSGGTHIILVTKPSWSLGIAVKKPEDYLAVFDETVEIASKIREIGVGAFPVLGVHPAEISKITEYMDLSEAVETMKKGLELAAGYVERGLAVGIKSGRPHYPVPSDVWEASNEIMEHAFSLGKEQDCAVQLHTESVQEPELKDIAERARKTGIKMYRVVKHYSPPLVKTCEELGIFPGVISVKGAIEKAIEEGTRFMMETDYIDDPDRPGAVLGPKTIPKRTIKLMETYGEEPFWTIHKENPEKVYDIEIEL", "soluble on expression in E. coli": "not soluble"}, {"sequence": "MPCTDKGMIDLARKTVKLTTLRQGEEATIAGISKACRGANRRRLLDLGFVRGSRIAIDLTSPLGNPTAYVVRGTAIALRRDQARYILIYR", "soluble on expression in E. coli": "not soluble"}, {"sequence": "MPDAVVVGAGPNGLVAANLLADAGWSVTVLEEQPEPGGAVRHDGEVAPGFVNDLFSSFYPLAAASPVLGGLRLEEHGLRWAHAPHVLAHPLTDGTCAVLDRDVATTAASLDAFALGDGAAWERLHAVWDRYRADILDALFTPFPPVRATARLALRLRGAGGLRLARTLVLPVRRMGEEEFRGEGGRLLLAGNALHADLAPEAAGSGGFGWLMSMLGQTYGFPVPVGGSGALTEALVHRLRARGGTLHCGRRVERVLVRDRRAVGVRTADGETVTARRAVLANVSVPALYGRLVAPADLPDQVLTDLRRFQWDFATFKVDWALDGPVPWQCEAAARAGTVHLSDGLDELTRFAAQIAMRQVPDRPFSLFGQMTTTDPTRSPRGTESAWAYTHVPHDIRADAGEEGITGTWDTGERELMADRVERQVERFAPGFRALIRARRVLAPPTLQALDANLEGGAINGGTTAMHQQLVFRPVPGTGRPETPVAGLFLASAGAHPGGGVHGAPGANAARAALRQHRFAGLARIQRALTRRDRAGDRHLEHHHHHH", "soluble on expression in E. coli": "not soluble"}, {"sequence": "MPDLMHSELTMSGPEQSLLAGALLGAGLPADAHRHLELAGRDYQSEALAEQHLREAHLLAPDHAAVLIGLYRFYFYKGRLGEALEVAQACLCKAARDNGLASDWRKVRRGDAEFSSYSAVLPRFYLFALKAYAYLQMRLGQLDEGHAAVEKLLELDPTDKVGAAVLLDVWRRIGLEHHHHHH", "soluble on expression in E. coli": "not soluble"}, {"sequence": "MPDSPVDVKTQSRLTPPTMPPPPTTQGAPRTSSFTPTTLTNGTSHSPTALNGAPSPPNGFSNGPSSSSSSSLANQQLPPACGARQLSKLKRFLTTLQQFGNDISPEIGERVRTLVLGLVNSTLTIEEFHSKLQEATNFPLRPFVIPFLKANLPLLQRELLHCARLAKQNPAQYLAQHEQLLLDASTTSPVDSSELLLDVNENGKRRTPDRTKENGFDREPLHSEHPSKRPCTISPGQRYSPNNGLSYQPNGLPHPTPPPPQHYRLDDMAIAHHYRDSYRHPSHRDLRDRNRPMGLHGTRQEEMIDHRLTDREWAEEWKHLDHLLNCIMDMVEKTRRSLTVLRRCQEADREELNYWIRRYSDAEDLKKGGGSSSSHSRQQSPVNPDPVALDAHREFLHRPASGYVPEEIWKKAEEAVNEVKRQAMTELQKAVSEAERKAHDMITTERAKMERTVAEAKRQAAEDALAVINQQEDSSESCWNCGRKASETCSGCNTARYCGSFCQHKDWEKHHHICGQTLQAQQQGDTPAVSSSVTPNSGAGSPMDTPPAATPRSTTPGTPSTIETTPR", "soluble on expression in E. coli": "soluble"}, {"sequence": "MPEFDFSPITEGIYNVIETEEKVLTSLPEETITQKRNRQNRTIKQILGHLIDSTSNNHQRMIRLQYSKDLLFFPDYRQDNDLWIALQDYQHTDWNNLIQLWKFFNLHIIQVIKSVDQTKLDSYWCDFEGTKVTLKEMIEGYLDHLNLHIQEIHELI", "soluble on expression in E. coli": "not soluble"}, {"sequence": "MPEGFDAYCICTGTPTARDLSIPGRELKGIHFALEMLAQQNRILEGQTFPKDKLVNAKGKKVLVIGGGDTGSDCIGTSVRQGATSVTQIEIMPKPPVGHNPSTPWPQWPVVFKTTSSHEEGCTRRWCLTSNQFLGKNGKVTGVEVEEVEWTPATDGGRPTMNLTGKKEVIEADMVLLAMGFLKPEQPKFAENVFLAGDAATGASLVVRAMAGGRKAAADIDHYLEHHHHHH", "soluble on expression in E. coli": "not soluble"}, {"sequence": "MPEGPEVALTADILEKYFKGKTLEYIDFISGRYSKSEPEGYDDFIANLPLKVSNVDTKGKFLWFELFDPNDKSNKWYIWNTFGLTGMWSLFEAKYTRAVLSFDNELMAYFSDMRNFGTFKFSNSEKELKRKLNELGPDFLKNDDIDISKIKKYKQPIVALLMDQKKIGSGLGNYLVAEILYRAKIDPHKLGSNLTDQEIENLWYWIKYETKLAYDSNHIGYMVNLENESSKIGRKNYHPNIHPTEKEFDFLVYRKKKDPNGNKVIADKIIGSGKNKRTTYWAPAIQKLEHHHHHH", "soluble on expression in E. coli": "soluble"}, {"sequence": "MPENVTVIGAGLAGSEATWQLAKRGIHVDLYEMRPKKETPAHETGEFAELVCTNSMRSNQLSNAVGLLKEEMRHLDSLIMKAADMTQVPAGGALAVDRDSFSKYVTDTLKGMDNVTVHEEEIVKIPEDGITIIATGPLTSDALAKQIQAFSGTDSLHFFDAAAPIIAADSIDMDIVYKKSRYDRGEAAYLNCPMSKEQYEKFANELIKAETAQLHGFENSDVFEGCMPIEVMAARGAKTMLFGPLKPVGLEDPHTGETPYAVVQLRQDNAAASMYNIVGFQTHLKFGEQKRVFSMIPGLENARFVRYGKMHRNTYMASPNVLTASYEAKNRPGLFFAGQMTGVEGYVESAGSGLVAGINAAREALGKETVAFPKNTALGSMANYVTTTSAKHFQPMNASFALLPALEGKKIRKKRERHEKISERGLASLDAFKTEVLDLEHHHHHH", "soluble on expression in E. coli": "soluble"}]}]}
